Source: the nanobody polyreactivity screen of Harvey et al. (2022)

Assay: yeast display, Sf9 membrane polyspecificity reagent, FACS + sequencing; frameworks hold sequencing errors
Summary of the method: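 Nanobodies from a synthetic yeast display library (Saccharomyces cerevisiae BJ5465), induced 36–48 hours with galactose, were stained 1 hour at 4 °C with 10% biotinylated, detergent-solubilized Sf9 membrane reagent, enriched on streptavidin microbeads, then FACS-sorted. Anti-HA (expression) and streptavidin (reagent binding) fluorescence set low and high (top ~1%) gates. Polyreactivity labels come from the gate of origin. Genes were colony-PCR amplified, MiSeq 2 × 250 sequenced and filtered by CDR length.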

Row | Sequence | polyreactivity (PSR sort gate)
1 | QVQLVESGGGLVQAGGSLRLSCAASGSIFYSYAMGWYRQAPGKERELVADITITGSTYYADSVKGRFTISRDNAKNTVYLQMNSLKPEDTAVYYCDAVLAPGGYDYWGQGTQVTVSS | low polyreactivity
2 | QVQLVESGGGLVQAGGSLRLSCAASGSIFYSYAMGWYRQAPGKERELVAVITRGGSTNYADSVKGRFTISRDNAKNTVYLQMNSLKPEDTAVYYCNKDRYGKVFRYPPYYRSSPYDYWGQGTQVTVSS | high polyreactivity
3 | QVQLVESGGGLVQAGGSLRLSCAASGSIFYTNAMGWDRQAPGKERELVATITSSTGSTNYADSVKGRFTISRDNAKNTVYLQMNSLKPEDTAVYYCAKRDGYWVYYQMDYWGQGTQVTVSS | low polyreactivity
4 | QVQLVESGGGLVQAGGSLRLSCAASGSIFYTNVRGWYRQAPGKAREFVAAITGGGGSTYYADSVKGRFTISRDNAKNTVYLQMNSLKPEDTAVYYCATKAKPRSGYNYWGQGTQVTVSS | low polyreactivity
5 | QVQLVESGGGLVQAGGSLRLSCAASGSIFYTYAKGWYRQAPGKQRELVAGISWSGSDTYYADSVKGRFTISRDNAKNTVYLQMNSLKPEDTAVYYCNAETSTRKNFGYDYWGQGTQVTVSS | low polyreactivity
6 | QVQLVESGGGLVQAGGSLRLSCAASGSIFYTYAMGWSRQAPGKEREFVAAITSSGGSTYYADSVKGRFTISRDNAKNTVYLQMNSLKPEDTAVYYCAADSGSTSEYEYWGQGTQVTVSS | low polyreactivity
7 | QVQLVESGGGLVQAGGSLRLSCAASGSIFYTYAMGWYRQAPGKEREFVASITYRGSNTYYADSVKGRFTISRDNAKNTVYLQMNSLKPEDTAVYYCAADSFYYRPEYDYWGQGTKVTVSS | low polyreactivity
8 | QVQLVESGGGLVQAGGSLRLSCAASGSIFYTYAMGWYRQAPGKERELVATIRVSGVSTYADSVKGRFTISRDNAKNTVYLQMNSLKPEDTAVYYCNKVSFYEPIYWQQGYVLLDYWGQGTQVTVSS | low polyreactivity
9 | QVQLVESGGGLVQAGGSLRLSCAASGSIFYVNTMGWYRQAPGKERELVAAISDSSGGTYYADSVKGRFTISRDNAKNTVYLQMNSLKPEDPAVYYCARDSTSHYDSGPYSSPFDYWGQGTQVTVSS | low polyreactivity
10 | QVQLVESGGGLVQAGGSLRLSCAASGSIFYVYAMGGYRQAPGKERELVAAISKSGGSTYYADSVKGRFTISRDNAKNTVYLQMNRLKPEDTAVYYCAAYFSYGSIIEDYWGQGTQVTVSS | low polyreactivity
11 | QVQLVESGGGLVQAGGSLRLSCAASGSIFYVYAMGWYRQAPGKERELDAGITTSGGSTYYADSVKGRFTISRDNAKNTVYLQMKSLKPEDTAVYYCATRNAFTAGSYNVYYGEYYWGQGTQVTVSS | low polyreactivity
12 | QVQLVESGGGLVQAGGSLRLSCAASGSIFYVYAMGWYRQAPGKERELVAAISFSGDTTYYADSVKGRFTISRDNAKNTVYLQMNSLKQEDTAVYYCAAEYYYTWVYQYWEMDYWGQGTQVTVSS | low polyreactivity
13 | QVQLVESGGGLVQAGGSLRLSCAASGSIFYVYAMGWYRQAPGKERELVAAITNYADSVKGRFTISRDNAKNTVYLQMNSLKPEDTAVYYCAADWWRVEMDYWGQGTQVTVSS | low polyreactivity
14 | QVQLVESGGGLVQAGGSLRLSCAASGSIFYVYAMGWYRQAPGKERELVASISWGDSSTYYADSVKGRFTISRDNAKNTVYLQMNSLKPDDTAVYYCAADEYRQYALYDYWGQGTQVTVSS | low polyreactivity
15 | QVQLVESGGGLVQAGGSLRLSCAASGSIFYVYAMGWYRQAPGKERELVATISSSAGSTYYADSVKGRFTISRDNAKNTVYLQMNSLKPEDTAVYYCAVRQIYQTSDHRLQYDYWGQGTQVTVSS | low polyreactivity
16 | QVQLVESGGGLVQAGGSLRLSCAASGSIFYVYAMGWYRQAPGNERELVADITTRDGDTYYADSVKGRFTISRDNAKNTVYFQMNSLKPEDTAVYYCAADLNAYPQRAYDYWGQGTQVTVSS | low polyreactivity
17 | QVQLVESGGGLVQAGGSLRLSCAASGSIFYWYAMGWYRQAPGKERELVAAIDISDDTYYADSVKGRFTISRDNAKNTVYLQMNSLKPEDTAVYYCAARTTRWFYEYDWGQGTQVTVSS | high polyreactivity
